Target: biotinylated Aβ immobilised for the SPR of CreneFab alanine mutants
Experiment: SPR; BIAcore T200, single-cycle kinetics; biotinylated Aβ (11–28 or oligomeric 1–42) captured on streptavidin-coupled CM5 chip (100–200 RU); antibody as analyte 0.8–500 nM in HBS-P pH 7.4, 0.15 M NaCl; one-to-one Langmuir model

| fold reduction of affinity against wild-type CreneFab | Binder |
| --- | --- |
| 1.8 fold | CreneFab Ser52a alanine mutant (Fab, V domains shown) VH: EVQLVESGGGLVQPGGSLRLSCAASGFTFSSYGMSWVRQAPGKGLELVASINANGGSTYYPDSVKGRFTISRDNAKNSLYLQMNSLRAEDTAVYYCASGDYWGQGTLVTVSS VL: DIVMTQSPLSLPVTPGEPASISCRSSQSLVYSNGDTYLHWYLQKPGQSPQLLIYKVSNRFSGVPDRFSGSGSGTDFTLKISRVEAEDVGVYYCSQSTHVPWTFGQGTKVEIK |
| 2.6 fold | CreneFab with deletion of Glu1^HC and Val2^HC (Fab, V domains shown) VH: QLVESGGGLVQPGGSLRLSCAASGFTFSSYGMSWVRQAPGKGLELVASINSNGGSTYYPDSVKGRFTISRDNAKNSLYLQMNSLRAEDTAVYYCASGDYWGQGTLVTVSS VL: DIVMTQSPLSLPVTPGEPASISCRSSQSLVYSNGDTYLHWYLQKPGQSPQLLIYKVSNRFSGVPDRFSGSGSGTDFTLKISRVEAEDVGVYYCSQSTHVPWTFGQGTKVEIK |

Source: publication PMC5171940
